Earlier results, collected in publication PMC5477003.

Target: integrin αIIbβ3 (Homo sapiens) (UniProt P08514)

Substance: CD40L (from UniProt P29965)
- Kd: 30 nM
